# Measured values taken from patent publication US20040228866A1, “Suppressor genes” (Ludwig Institute for Cancer Research, priority 2000, published 2004).
# B1: ASPP2/bBP2: 1005 amino acid polypeptide, amino acids 123-1128 of ASPP2 (protein)
# chain: RMDLTLAELQEMASRQQQQIEAQQQLLATKEQRLKFLKQQDQRQQQQVAEQEKLKRLKEIAENQEAKLKKVRALKGHVEQKRLSNGKLVEEIEQMNNLFQQKQRELVLAVSKVEELTRQLEMLKNGRIDSHHDNQSAVAELDRLYKELQLRNKLNQEQNAKLQQQRECLNKRNSEVAVMDKRVNELRDRLWKKKAALQQKENLPVSSDGNLPQQAASAPSRVAAVGPYIQSSTMPRMPSRPELLVKPALPDGSLVIQASEGPMKIQTLPNMRSGAASQTKGSKIHPVGPDWSPSNADLFPSQGSASVPQSTGNALDQVDDGEVPLREKEKKVRPFSMFDAVDQSNAPPSFGTLRKNQSSEDILRDAQVANKNVAKVPPPVPTKPKQINLPYFGQTNQPPSDIKPDGSSQQLSTVVPSMGTKPKPAGQQPRVLLSPSIPSVGQDQTLSPGSKQESPPAAAVRPFTPQPSKDTLLPPFRKPQTVAASSIYSMYTQQQAPGKNFQQAVQSALTKTHTRGPHFSSVYGKPVIAAAQNQQQHPENIYSNSQGKPGSPEPETEPVSSVQENHENERIPRPLSPTKLLPFLSNPYRNQSDADLEALRKKLSNAPRPLKKRSSITEPEGPNGPNIQKLLYQRTTIAAMETISVPSYPSKSASVTASSESPVEIQNPYLHVEPEKEVVSLVPESLSPEDVGNASTENSDMPAPSPGLDYEPEGVPDNSPNLQNNPEEPNPEAPHVLDVYLEEYPPYPPPPYPSGEPEGPGEDSVSMRPPEITGQVSLPPGKRTNLRKTGSERIAHGMRVKFNPLALLLDSSLEGEFDLVQRIIYEVDDPSLPNDEGITALHNAVCAGHTEIVKFLVQFGVNVNAADSDGWTPLHCAASCNNVQVCKFLVESGAAVFAMTYSDMQTAADKCEEMEEGYTQCSQFLYGVQEKMGIMNKGVIYALWDYEPQNDDELPMKEGDCMTIIHREDEDEIEWWWARLNDKEGYVPRNLLGLYPRIKPRQRSLA
# B2: ASPP2/53BP2: 528 amino acid C-terminal polypeptide, amino acids 600-1128 of ASPP2 (protein)
# chain: KPQTVAASSIYSMYTQQQAPGKNFQQAVQSALTKTHTRGPHFSSVYGKPVIAAAQNQQQHPENIYSNSQGKPGSPEPETEPVSSVQENHENERIPRPLSPTKLLPFLSNPYRNQSDADLEALRKKLSNAPRPLKKRSSITEPEGPNGPNIQKLLYQRTTIAAMETISVPSYPSKSASVTASSESPVEIQNPYLHVEPEKEVVSLVPESLSPEDVGNASTENSDMPAPSPGLDYEPEGVPDNSPNLQNNPEEPNPEAPHVLDVYLEEYPPYPPPPYPSGEPEGPGEDSVSMRPPEITGQVSLPPGKRTNLRKTGSERIAHGMRVKFNPLALLLDSSLEGEFDLVQRIIYEVDDPSLPNDEGITALHNAVCAGHTEIVKFLVQFGVNVNAADSDGWTPLHCAASCNNVQVCKFLVESGAAVFAMTYSDMQTAADKCEEMEEGYTQCSQFLYGVQEKMGIMNKGVIYALWDYEPQNDDELPMKEGDCMTIIHREDEDEIEWWWARLNDKEGYVPRNLLGLYPRIKPRQRSLA
# modifications: left off: small tags and cut ends
# notes: 528 amino acid C-terminal polypeptide, amino acids 600-1128 of ASPP2
# B3: iASPP: Inhibitor of Apoptosis Stimulating Proteins, p65 rel A binding protein of 315 amino acids, SEQ ID NO: 6 (protein)
# chain: MWMKDPVARPLSPTRLQPALPPEAQSVPELEEVARVLAEIPRPLKRRGSMEQAPAVALPPTHKKQYQQIISRLFHRHGGPGPGGRSQSCPPSLRDLRPGQGPLLLPHQLPFHRPAPSQSSPPEQPQSMEMRSVLRKAGSPRKARRARLNPLVLLLDAALTGELEVVQQAVKEMNDPSQPNEEGITALHNAICGANYSIVDFLITAGANVNSPDSHGWTPLHCAASCNDTVICMALVQHGAAIFATTLSDGATAFEKCDPYREGYADCATYLADVEQSMGLMNSGAVYALWDYSAEFGDELSFREGESVTVLRRDGPEETDWWWAALHGQEGYVPRNYFGLFPRVKPQRSKV
# modifications: homo sapiens
# B4: E6: viral oncoprotein from human papilloma virus that binds p53 and targets it for degradation (protein, UniProt P03126 1-158, looked up)
# Protein E6: MHQKRTAMFQDPQERPRKLPQLCTELQTTIHDIILECVYCKQQLLRREVYDFAFRDLCIVYRDGNPYAVCDKCLKFYSKISEYRHYCYSLYGTTLEQQYNKPLCDLLIRCINCQKPLCPEEKQRHLDKKQRFHNIRGRWTGRCMSCCRSSRTRRETQL
# B5: Ikb: the inhibitor of p65 Rel A (protein, UniProt P25963 1-317, looked up)
# NF-kappa-B inhibitor alpha: MFQAAERPQEWAMEGPRDGLKKERLLDDRHDSGLDSMKDEEYEQMVKELQEIRLEPQEVPRGSEPWKQQLTEDGDSFLHLAIIHEEKALTMEVIRQVKGDLAFLNFQNNLQQTPLHLAVITNQPEIAEALLGAGCDPELRDFRGNTPLHLACEQGCLASVGVLTQSCTTPHLHSILKATNYNGHTCLHLASIHGYLGIVELLVSLGADVNAQEPCNGRTALHLAVDLQNPDLVSLLLKCGADVNRVTYQGYSPYQLTWGRPSTRIQQQLGQLTLENLQMLPESEDEESYDTESEFTEFTEDELPYDDCVFGGQRLTL
# Legend:
# [1] = target: T1, p53 (Homo sapiens, UniProt P04637); assay: Transient luciferase reporter assay of p53 transactivation function in Saos-2 cells; format: cell-based; settings: for effect on ASPP stimulation of p53 transactivation function on the Bax promoter: co-expressed with p53 and ASPP1 or ASPP2
# T1 construct: expressed in transfected cells
# T1 sequence (P04637 whole entry): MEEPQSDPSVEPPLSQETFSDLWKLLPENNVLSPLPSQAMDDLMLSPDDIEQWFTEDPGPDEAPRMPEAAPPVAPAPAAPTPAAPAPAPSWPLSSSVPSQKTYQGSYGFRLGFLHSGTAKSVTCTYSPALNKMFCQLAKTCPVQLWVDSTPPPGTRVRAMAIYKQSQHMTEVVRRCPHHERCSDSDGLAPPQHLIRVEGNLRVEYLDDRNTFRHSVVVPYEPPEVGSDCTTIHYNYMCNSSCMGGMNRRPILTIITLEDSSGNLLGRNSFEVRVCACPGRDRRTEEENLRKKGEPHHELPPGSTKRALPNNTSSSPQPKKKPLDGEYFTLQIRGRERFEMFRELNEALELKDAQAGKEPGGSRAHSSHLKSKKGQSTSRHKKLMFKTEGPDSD
# Experimental: (§1) The amount of luciferase expression was determined as previously described in Samuels-Lev et al. (Mol. Cell 8:781-94, 2001, herein incorporated by reference).
# (§2) The amount of transactivation function was determined as described in Example 4.
# (§3) To determine the amount of protein expression, Saos-2 cells (5×10^5) were plated 24 hours prior to transfection in 6 cm dishes. […] To determine the amount of gene activation, after transfection, the cells were lysed in Reporter Lysis Buffer 16-24 hours post-wash and assayed using the Luciferase Assay kit (Promega, Wis.). The fold activation of a particular reporter was determined by the activity of the transfected plasmid above the activity of vector alone.
# (§4) The expression level of transfected proteins was detected using 40 μg of the respective lysates using the antibodies V5, DX.5410, DO1, 4A4 and p73. […] Results were derived from at least three independent experiments.
# [2] = target: T1, p53; assay: Co-immunoprecipitation with p53 in transfected Saos-2 cells; format: binding
# Experimental: The cells were lysed in NP40 lysis buffer and 1000 μg of lysate immunoprecipitated with antibodies to iASPP bound to Protein G beads.
# [3] = system: Saos-2 cells; assay: Apoptosis by flow cytometry (CD20-gated, sub-G1 DNA content) in transfected Saos-2 cells; format: cell-based
# Experimental: Apoptosis was identified by the expression of the co-transfected cell surface marker CD20, as described in Samuels-Lev et al. (Mol. Cell 8:781-94, 2001, herein incorporated by reference).
# The number of apoptotic cells was determined using the methods described in Example 6.
# Cells (10^6) were plated 24-48 hours prior to transfection in 10 cm plates. Cells were grown in DMEM supplemented with 10% FCS and transfected with 2 μg of a plasmid expressing CD20 as a transfection marker. Increasing amounts of ASPP1 and ASPP2 were transfected (7.5 μg, 15 μg and 25 μg). 36 hours after the transfection, both attached and floating cells were harvested and analysed using flow cytometry as follows. The transfected cells were gated based on the expression of CD20. The percentage of apoptotic cells was measured by the accumulation of cells with a sub-G1 DNA content derived from at least three individual experiments.
# The transfected cells were analyzed by flow cytometry as described in Example 6.
# [4] = system: U2OS and MCF7 cells; assay: Apoptosis by FACS in U2OS and MCF7 cells expressing wild-type p53, with or without cisplatin; format: cell-based, human; settings: for effect on cisplatin-induced apoptosis: transfected before cisplatin, FIGS. 7B and 7D
# Experimental: The transfected cells were gated, and the apoptotic cells identified by FACS as described in Example 6.
# Before exposure to cisplatin (5 and 3 μg/ml respectively), U2OS and MCF7 cells were transfected with plasmids encoding HPV16 E6, iASPP, or 53BP2. Thirty hours later, cells were harvested and analysed as above.
# Fragments from the 5′ ends of ASPP1, ASPP2 and iASPP cDNA were cloned into a mammalian expression vector in an antisense orientation and their ability to inhibit the protein synthesis determined in vitro. The antisense nucleic acid molecules were amplified by PCR on the respective plasmid clones using primers spanning the following nucleotide regions (relative to the initial ATG): −74 to 923; −253 to 839 and −37 to 536 for ASPP1, ASPP2 and iASPP respectively. The amplified segments were purified with the QIAquick PCR purification kit (QIAGEN) and ligated in the pcDNA3.1/V5-His TOPO vector (Invitrogen) according to the manufacturer's instructions.
# U2OS and MCF-7 cells were transfected with the various expression plasmids prior to the treatment with cisplatin and analyzed using FACS as described above.
# To determine the anti-apoptotic role of iASPP, both U2OS and MCF-7 cells were transfected with antisense iASPP and cells analyzed as described above. […] A small increase in apoptotic cells was consistently detected (FIG. 7D).
# [5] = system: rat embryo fibroblasts (REFs); assay: Transformation of rat embryo fibroblasts with E7; format: cell-based; settings: co-transfected with E7, FIG. 10A
# [6] = system: MCF-7 cells; assay: Cellular resistance to the cytotoxic effect of cisplatin in MCF-7 cells; format: cell-based, human; settings: iASPP-expressing versus non-expressing cells, FIG. 10B
# From the text: Many chemotherapy drugs are DNA-damage agents and induce apoptosis via p53-dependent pathway. […] The cellular resistance to the cytotoxic effect of cisplatin were compared between iASPP-expressing and non-expressing iASPP MCF-7 cells. Expression of iASPP enhanced the cellular resistance by about 2.5 fold (FIG. 10B). Such an increase in cellular resistance to cisplatin is significant with respect to cancer treatment.
# [7] = system: p53; assay: Transient luciferase reporter assay of p53 transactivation function in Saos-2 cells; format: cell-based; settings: expressed without p53, FIG. 8B
# Experimental: as §1, §2, §3, §4
molecule,measurement,setting,value
B1,stimulation of the transactivation function of p53,"[1]; versions of ASPP2 co-expressed with p53, FIG. 3",about 2 fold
same,interaction with p53 by immunoprecipitation and western blot,[2],interacted with p53 in vivo
B2,apoptotic cells,"[3]; p53, ASPP2 and ASPP2/53BP2 all co-expressed, FIG. 4C",30%
same,effect on cisplatin-induced apoptosis,[4],inhibited cisplatin-induced apoptosis to a similar extent as E6
same,reduction of the transactivation function of p53,"[1]; co-expressed with p53, FIG. 3",about 50%
same,effect on ASPP stimulation of p53 transactivation function on the Bax promoter,[1],inhibited ASPP2 stimulation
same,stimulation of p21waf1 and PG synthetic promoters,[1]; co-expression with p53,slight stimulation
same,stimulation of the promoter activity of mdm2 and cyclin G,[1]; co-expression with p53,failed to stimulate
B3,transforming function of E7,[5],enhanced the transforming function of E7 significantly
same,effect on the apoptotic function of wild type p53,[3]; co-expressed with p53,small inhibitory effect
same,effect on the enhancement of p53 apoptotic function by ASPP1 and ASPP2,[3]; co-expressed with p53 and ASPP1 or ASPP2,decreased or inhibited the enhanced apoptotic function of p53
same,apoptosis when expressed alone,[3]; no p53 co-expressed,did not induce apoptosis on its own
same,effect on cisplatin-induced apoptosis,[4],inhibited cisplatin-induced apoptosis to a similar extent as E6
same,effect on ASPP stimulation of p53 transactivation function on the Bax promoter,[1],decreased or eliminated the ability
same,interaction with p53 by immunoprecipitation and western blot,[2],interacted with p53
same,enhancement of cellular resistance to cisplatin,[6],about 2.5 fold
B4,percentage of transfected cells that die of apoptosis after cisplatin,"[4]; cisplatin 5 and 3 μg/ml (U2OS, MCF7), thirty hours",below 15%
same,effect on apoptosis induced by ASPP1 or ASPP2,[4]; co-expression,inhibited the apoptosis induced by ASPP1 or ASPP2
same,effect on cisplatin-induced apoptosis,[4],reduced the percentage of apoptotic cells to half
B5,"percentage of apoptotic cells, co-expressed with p53 and ASPP2","[3]; Example 11, p53+ASPP2 30%",16%
same,"percentage of apoptotic cells, co-expressed with p53","[3]; Example 11, p53 alone […]%",11%
same,"percentage of apoptotic cells, expressed alone","[3]; Example 11, vector alone 4.6%",7.2%
same,inhibition of Bax promoter reporter activity,[7],did not show any detectable inhibition
same,inhibition of the transactivation function of p53 on the Bax promoter,[1]; 50 ng co-expressed with p53,very little inhibition
same,transactivation function of p53 on the mdm2 promoter,"[1]; FIG. 8C, Ikb even in the presence of ASPP2",hardly decreased
same,effect on ASPP stimulation of p53 transactivation function on the Bax promoter,[1],significantly decreased ASPP2-mediated stimulation
